In publication PMC6241527 (Science (New York, N.Y.), 2018):

Assays:
[1] = molecular target: T1, H1 hemagglutinin (A/Solomon Islands/3/06) (influenza A virus (A/Solomon …)); assay: crystal structure
T1 chain 1: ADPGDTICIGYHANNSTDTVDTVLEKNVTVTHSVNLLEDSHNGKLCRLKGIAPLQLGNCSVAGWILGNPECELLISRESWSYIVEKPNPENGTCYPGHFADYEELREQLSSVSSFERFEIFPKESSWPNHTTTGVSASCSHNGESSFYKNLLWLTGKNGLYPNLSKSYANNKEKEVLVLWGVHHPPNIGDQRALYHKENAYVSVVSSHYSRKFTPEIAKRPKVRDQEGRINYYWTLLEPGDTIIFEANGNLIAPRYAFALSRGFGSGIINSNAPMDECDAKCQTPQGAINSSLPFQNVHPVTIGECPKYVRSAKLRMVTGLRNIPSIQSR
T1 chain 2: not shown

[2] = molecular target: T2, H1 hemagglutinin (A/Brisbane/59/07) (Influenza A virus …)
[3] = molecular target: T2, H1 hemagglutinin (A/Brisbane/59/07); assay: cell-based or functional assay
[4] = molecular target: T3, influenza B hemagglutinin (B/Brisbane/60/08) (influenza B virus (B/Brisbane/60/08), N-linked glycans at N301 and N330 (HA1)); assay: crystal structure
T3 chain 1: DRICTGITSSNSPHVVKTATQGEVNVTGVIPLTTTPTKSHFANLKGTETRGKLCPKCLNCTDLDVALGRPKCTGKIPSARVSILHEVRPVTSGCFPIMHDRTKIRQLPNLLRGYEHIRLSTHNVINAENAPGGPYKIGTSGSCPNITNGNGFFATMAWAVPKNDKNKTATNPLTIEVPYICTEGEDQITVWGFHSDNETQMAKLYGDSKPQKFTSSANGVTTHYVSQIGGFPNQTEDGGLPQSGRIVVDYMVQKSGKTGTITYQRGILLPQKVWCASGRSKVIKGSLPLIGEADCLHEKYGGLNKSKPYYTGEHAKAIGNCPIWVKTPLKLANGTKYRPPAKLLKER
T3 chain 2: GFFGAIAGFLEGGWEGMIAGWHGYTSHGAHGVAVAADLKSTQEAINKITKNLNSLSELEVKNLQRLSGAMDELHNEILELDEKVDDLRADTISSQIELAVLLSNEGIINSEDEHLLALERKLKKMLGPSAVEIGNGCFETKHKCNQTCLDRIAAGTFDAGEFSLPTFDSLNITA

B1: single-domain antibody SD38 (VHH)
VHH: EVQLVESGGGLVQPGGSLRLSCAVSISIFDIYAMDWYRQAPGKQRDLVATSFRDGSTNYADSVKGRFTISRDNAKNTLYLQMNSLKPEDTAVYLCHVSLYRDPLGVAGGMGVYWGKGALVTVSS
- stoichiometry N [1]: 3 sdAbs per HA trimer

B2: single-domain antibody SD36 (VHH)
VHH: EVQLVESGGGLVQAGGSLKLSCAASGRTYAMGWFRQAPGKEREFVAHINALGTRTYYSDSVKGRFTISRDNAKNTEYLEMNNLKPEDTAVYYCTAQGQWRAAPVAVAAEYEFWGQGTQVTVSS
- Kd [2]: 290 nM
- in vitro neutralisation of the corresponding virus (A/Brisbane/59/07), IC50 [3]: > 1000 nM

B3: single-domain antibody SD83 (VHH)
VHH: EVQLVESGGGLVQPGGSLRLSCAATGFTLENKAIGWFRQTPGSEREGVLCISKSGSWTYYTDSMRGRFTISRDNAENTVYLQMDSLKPEDTAVYYCATTTAGGGLCWDGTTFSRLASSWGQGTQVTVSS
- stoichiometry N [4]: 3 sdAbs per HA trimer
